These results are taken from paper PMC9516340, “Familial ALS-associated SFPQ variants promote the formation of SFPQ cytoplasmic aggregates in primary neurons” (Open Biology, 2022).

The data set deals with the molecule itself. Put plainly: crystal structure; hanging-drop vapour diffusion at 20°C; SFPQ-276-535 L534I (His6-tag removed) mixed 1:1 with RXRα-DBD-130-228 as source of Zn(II); reservoir 0.1 M MES (pH 6.0), 0.2 M calcium chloride, 12% (w/v) PEG 4000; space group P2(1), two protein molecules per asu; 1.83 Å.

B1: SFPQ-276-535 L534I (dimerization domain of human splicing factor proline- and glutamine-rich, fALS-associated L534I variant) (domain or fragment, UniProt P23246 276-535, looked up)
chain: EGFKANLSLLRRPGEKTYTQRCRLFVGNLPADITEDEFKRLFAKYGEPGEVFINKGKGFGFIKLESRALAEIAKAELDDTPMRGRQLRVRFATHAAALSVRNLSPYVSNELLEEAFSQFGPIERAVVIVDDRGRSTGKGIVEFASKPAARKAFERCSEGVFLLTTTPRPVIVEPLEQLDDEDGLPEKLAQKNPMYQKERETPPRFAQHGTFEYEYSQRWKSLDEMEKQQREQVEKNMKDAKDKLESEMEDAYHEHQANIL
notes: also called SFPQ L534I
Turning to B1, the binding result is “binds”.
